From PMC4825002, “Fibromodulin Interacts with Collagen Cross-linking Sites and Activates Lysyl Oxidase*” (The Journal of Biological Chemistry, 2016)

What was measured:
[1] = target: T1, acetic acid-extracted tail tendon mouse collagen I (mouse, UniProt P11087 152-1207; Q01149 86-1125); assay: ELISA; solid-phase assay: collagen coated at 10 μg/ml in PBS; serially diluted FMOD or LOX; detected with anti-His tag or anti-LOX antibodies; apparent KD; conditions: both partners purified
T1 construct: collagen I alpha1 chain, mouse, tissue-extracted; collagen I alpha2 chain, mouse, tissue-extracted; also called collagen type I; full-length collagen; source: extracted from mouse tail tendons using 20 mM acetic acid
T1 sequence (P11087 152-1207, chain 1 of 2): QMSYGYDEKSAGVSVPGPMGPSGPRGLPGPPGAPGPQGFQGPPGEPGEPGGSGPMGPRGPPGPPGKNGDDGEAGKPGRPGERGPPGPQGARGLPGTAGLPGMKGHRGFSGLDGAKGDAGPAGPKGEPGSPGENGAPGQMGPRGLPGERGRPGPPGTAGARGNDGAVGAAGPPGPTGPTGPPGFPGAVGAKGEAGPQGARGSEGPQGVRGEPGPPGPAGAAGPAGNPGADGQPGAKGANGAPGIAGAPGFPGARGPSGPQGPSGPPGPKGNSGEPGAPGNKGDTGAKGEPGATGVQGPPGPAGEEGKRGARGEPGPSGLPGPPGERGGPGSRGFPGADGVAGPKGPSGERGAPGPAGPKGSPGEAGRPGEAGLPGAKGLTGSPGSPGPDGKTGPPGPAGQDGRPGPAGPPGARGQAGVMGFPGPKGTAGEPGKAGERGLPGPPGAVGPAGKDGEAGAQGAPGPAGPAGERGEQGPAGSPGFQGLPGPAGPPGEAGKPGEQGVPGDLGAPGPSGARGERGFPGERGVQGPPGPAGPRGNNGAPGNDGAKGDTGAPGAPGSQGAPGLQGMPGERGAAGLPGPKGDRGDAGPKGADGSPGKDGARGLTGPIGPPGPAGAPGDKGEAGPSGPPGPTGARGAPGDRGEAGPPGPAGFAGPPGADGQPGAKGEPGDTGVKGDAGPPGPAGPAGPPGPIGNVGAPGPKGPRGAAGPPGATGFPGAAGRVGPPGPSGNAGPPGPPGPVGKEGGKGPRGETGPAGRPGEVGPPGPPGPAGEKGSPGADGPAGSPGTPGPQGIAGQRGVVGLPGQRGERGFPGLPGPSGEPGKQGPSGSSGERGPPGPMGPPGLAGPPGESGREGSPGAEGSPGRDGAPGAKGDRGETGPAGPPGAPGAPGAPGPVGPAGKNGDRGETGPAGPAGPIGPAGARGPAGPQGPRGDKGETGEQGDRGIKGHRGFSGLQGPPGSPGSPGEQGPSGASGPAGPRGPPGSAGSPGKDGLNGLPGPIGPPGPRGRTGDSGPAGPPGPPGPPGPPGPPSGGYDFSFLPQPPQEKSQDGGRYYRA
T1 sequence (Q01149 86-1125, chain 2 of 2): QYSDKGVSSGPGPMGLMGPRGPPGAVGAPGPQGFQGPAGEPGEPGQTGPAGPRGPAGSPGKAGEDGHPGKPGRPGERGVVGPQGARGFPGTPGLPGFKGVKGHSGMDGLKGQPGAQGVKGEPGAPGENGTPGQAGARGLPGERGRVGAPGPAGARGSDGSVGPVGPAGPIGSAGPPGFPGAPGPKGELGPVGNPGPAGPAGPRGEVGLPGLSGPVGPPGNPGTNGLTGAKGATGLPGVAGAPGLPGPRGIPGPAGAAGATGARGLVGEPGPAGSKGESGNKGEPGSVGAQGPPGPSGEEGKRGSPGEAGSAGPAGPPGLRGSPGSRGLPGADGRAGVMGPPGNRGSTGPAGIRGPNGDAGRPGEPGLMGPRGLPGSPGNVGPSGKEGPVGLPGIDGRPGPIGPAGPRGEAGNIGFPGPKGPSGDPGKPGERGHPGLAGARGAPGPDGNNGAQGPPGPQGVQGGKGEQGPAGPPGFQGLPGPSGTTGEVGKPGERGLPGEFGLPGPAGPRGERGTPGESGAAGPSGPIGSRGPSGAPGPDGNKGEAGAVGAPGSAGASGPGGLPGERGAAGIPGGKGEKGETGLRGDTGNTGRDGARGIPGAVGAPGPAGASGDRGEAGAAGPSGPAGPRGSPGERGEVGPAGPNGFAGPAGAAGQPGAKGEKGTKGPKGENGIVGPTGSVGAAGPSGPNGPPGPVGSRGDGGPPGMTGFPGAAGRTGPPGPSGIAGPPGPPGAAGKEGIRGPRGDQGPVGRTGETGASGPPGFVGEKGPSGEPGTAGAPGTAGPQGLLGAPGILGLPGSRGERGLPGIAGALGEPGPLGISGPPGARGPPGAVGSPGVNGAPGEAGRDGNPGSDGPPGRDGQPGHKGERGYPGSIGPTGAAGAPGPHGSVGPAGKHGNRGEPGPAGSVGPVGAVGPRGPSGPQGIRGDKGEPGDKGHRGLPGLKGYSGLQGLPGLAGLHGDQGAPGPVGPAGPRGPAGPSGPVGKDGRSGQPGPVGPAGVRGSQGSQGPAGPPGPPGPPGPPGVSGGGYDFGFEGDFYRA

[2] = target: T2, recombinant lysyl oxidase protein (Origene) (UniProt P28300 22-417); assay: ELISA; solid-phase assay: FMOD variants coated; serial dilutions of LOX; detected with anti-LOX antibody; apparent KD; conditions: both partners purified
T2 construct: lysyl oxidase; the functional rows use this molecule for it; source: bought: Origene
T2 sequence (looked up): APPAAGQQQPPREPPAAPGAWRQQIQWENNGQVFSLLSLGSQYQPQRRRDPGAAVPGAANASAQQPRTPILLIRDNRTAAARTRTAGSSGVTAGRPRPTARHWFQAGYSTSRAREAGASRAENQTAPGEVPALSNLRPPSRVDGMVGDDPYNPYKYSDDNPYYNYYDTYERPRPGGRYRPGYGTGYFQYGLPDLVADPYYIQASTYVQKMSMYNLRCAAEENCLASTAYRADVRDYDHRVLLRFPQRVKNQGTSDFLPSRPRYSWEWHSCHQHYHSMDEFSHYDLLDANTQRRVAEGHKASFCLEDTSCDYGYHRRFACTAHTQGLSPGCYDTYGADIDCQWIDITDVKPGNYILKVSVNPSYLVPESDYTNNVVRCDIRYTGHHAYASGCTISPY

B1: His tag-modified recombinant fibromodulin (human, amino acids 19–376) (natural protein, UniProt Q06828 19-376, looked up)
chain: QYEDDPHWWFHYLRSQQSTYYDPYDPYPYETYEPYPYGVDEGPAYTYGSPSPPDPRDCPQECDCPPNFPTAMYCDNRNLKYLPFVPSRMKYVYFQNNQITSIQEGVFDNATGLLWIALHGNQITSDKVGRKVFSKLRHLERLYLDHNNLTRMPGPLPRSLRELHLDHNQISRVPNNALEGLENLTALYLQHNEIQEVGSSMRGLRSLILLDLSYNHLRKVPDGLPSALEQLYMEHNNVYTVPDSYFRGAPKLLYVRLSHNSLTNNGLASNTFNSSSLLELDLSYNQLQKIPPVNTNLENLYLQGNRINEFSISSFCTVVDVVNFSKLQVLRLDGNEIKRSAMPADAPLCLRLASLIEI
modifications: tyrosine sulfation (positions not given)
notes: fibromodulin, human, amino acids 19-376; also called FMOD; full-length FMOD; source: 293T cells (pCEP4 vector), purified (Ni-NTA-Sepharose, Superose 6)
- Kd [1]: ~250 nM
- Kd [2]: ~150 nM
